Tests used:
Conditions in all cases: bispecific antibody
huANG2 [1] = target: huANG2 (UniProt O15123); experiment: -; FIG. 2A
huANG2 [2] = target: huANG2 (UniProt O15123); experiment: -; FIG. 2B
huVEGF = huVEGF (UniProt P15692); experiment: -; FIG. 2B
Sequence of huVEGF (P15692 other isoform, or with tags, fused parts or gaps): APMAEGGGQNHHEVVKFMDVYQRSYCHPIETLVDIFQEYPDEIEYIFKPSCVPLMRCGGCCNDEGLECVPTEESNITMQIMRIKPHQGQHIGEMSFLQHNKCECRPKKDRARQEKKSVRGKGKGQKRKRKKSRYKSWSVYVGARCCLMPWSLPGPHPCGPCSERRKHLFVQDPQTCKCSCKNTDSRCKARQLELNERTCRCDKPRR

Sequence of huANG2 (O15123 19-496): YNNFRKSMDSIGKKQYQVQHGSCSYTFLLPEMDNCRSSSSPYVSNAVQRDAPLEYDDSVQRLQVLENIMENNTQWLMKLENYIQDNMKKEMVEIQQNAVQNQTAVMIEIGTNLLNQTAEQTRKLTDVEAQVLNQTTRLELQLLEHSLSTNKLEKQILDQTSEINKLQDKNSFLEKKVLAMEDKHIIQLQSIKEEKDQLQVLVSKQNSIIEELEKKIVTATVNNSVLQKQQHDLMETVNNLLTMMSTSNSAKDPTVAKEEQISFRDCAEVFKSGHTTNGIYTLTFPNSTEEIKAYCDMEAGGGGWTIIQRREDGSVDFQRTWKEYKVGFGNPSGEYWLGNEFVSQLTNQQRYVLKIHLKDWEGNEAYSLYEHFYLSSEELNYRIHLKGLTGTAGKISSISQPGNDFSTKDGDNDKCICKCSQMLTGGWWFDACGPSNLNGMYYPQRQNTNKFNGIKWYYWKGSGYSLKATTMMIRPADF

- Kd (huANG2 [1]): 32.1 nM
- Kd (huANG2 [2]): 32.1 nM
- Kd (huVEGF): 1.37 nM
Substance: anti-ANG-2×VEGF bispecific antibody ABP201

— US20240158489A1
